In US12180473B2, “Chimeric RNA-driven genomic rearrangement in mammalian cells” (priority 2018, dated 2024):
“Also recorded” adds a separate entry of the source.

How the values were obtained:
TMPRSS2-ERG fusion [1] = format: cell-based, human
Method: (§1) DHT was added at the final concentration of 0.9 μM six hours post transfection. Following overnight incubation, cells were then treated with 4 μg/ml α-amanitin for various time periods (0, 2, 6, 12 and 24 hours). Cells were then revived in fresh medium containing 0.9 μM DHT without α-amanitin and RT-PCR was performed for either TMPRSS2-ERG or TMPRSS2-ETV1 fusion.

TMPRSS2-ETV1 fusion [2] = format: cell-based, human
Method: as §1

TMPRSS2-ERG fusion [3] = assay: RT-PCR detection of induced endogenous TMPRSS2-ERG fusion transcript in LNCaP cells expressing input RNA; conditions: for induction of endogenous TMPRSS2-ERG fusion transcript (RT-PCR): LNCaP cells transfected with input RNA plasmid, DHT for 3 days
Method: (§2) LNCaP cells were cultured in this special medium for 24 hrs prior to plasmid transfection.
(§3) Transfection was performed using Turbofect transfection reagent (Thermo Scientific, #R0531) according to manufacturer's protocol. Briefly, 1 μg of a particular plasmid was first diluted in 100 μl of the serum-free DMEM followed by immediate mixing by pipetting. 4 μl of the transfection reagent was then added to the diluted DNA followed by mixing and incubation for 20 min. The DNA/transfection reagent mixture was then added drop wise to a well containing LNCaP cells in 1 ml medium.
(§4) For treating cultured cells, concentrated DHT stock was diluted as 10× working solutions (for example, for 0.9 μM final concentration, 10× is prepared as 9.0 μM) with the appropriate complete culture medium and used immediately. […] Six hrs post transfection, 111 μl of fresh 10× DHT working solutions was added to each well of 12-wells plate containing 1 ml medium and transfected cells.
(§5) Briefly, cells were suspended in 200 μl of PBS buffer and were then lysed with 400 μl of lysis buffer. The sample was then passed through the filter assembly resulting in the binding of the nucleic acids to the filter. The filter containing nucleic acids was then incubated with DNase I dissolved in DNase incubation buffer to degrade genomic and plasmid DNAs. The column was then rinsed with wash buffer and total RNA then eluted in a new tube for further analysis.
(§6) After the addition of dNTPs, the mixture was denatured at 65° C. for 5 minutes. This was followed by the addition of a master-mix containing 1× superscript buffer, 10 mM DTT, 5 mM Magnesium chloride, RNaseOUT and Superscript III reverse transcriptase. Reactions were carried out at 50° C. for 50 minutes and then terminated by incubation at 85° C. for 5 minutes. cDNA was then treated with RNase-H for 20 minutes at 37° C. to degrade RNA in DNA/RNA hybrid. 1 μl of cDNA was used as template for each subsequent PCR reaction.
(§7) The Denaturation, Annealing and Extension steps were performed 32 cycles for induced fusion RNA and 27 cycles for input RNA.

BCR-KCNQ2 fusion = assay: Nested RT-PCR of induced BCR-KCNQ2 fusion transcript in 293T cells; format: cell-based, human; conditions: for induction of BCR-KCNQ2 fusion: 293T, 3 days
Description: FIGS. 42A-42E. BCR-KCNQ2 fusion induced in 293T cells by chimeric RNAs utilizing/excluding the SINE element for three-way junction formation. FIG. 42A. Examples of chimeric RNA design using Short Interspersed Nuclear Element (SINE) commonly present in the human genome. The designed chimeric RNA forge a three-way junction that could be formed between two SINEs in genomic DNA (in the stem) and chimeric RNA (perpendicular and below the stem). Genomic DNA stems formed by DNA repeats such as SINE/SINE repeats may constitute stems over 300 nts in length. Short lines in gray regions represent base pairings. SINEs are in crimson. FIG. 42B. […] This chimeric RNA has GC content of 52%. FIG. 42B discloses the BCR targeting sequence as SEQ ID NO: 245, the KCNQ2 targeting sequence as SEQ ID NO: 246, and the chimeric sequence as SEQ ID NO: 247. FIG. 42C. Examples of chimeric RNA design targeting DNA sequences of BCR and KCNQ2 genes in the genome which form genomic stems using regions outside of known DNA repeats such as Short Interspersed Nuclear Element (SINE). SINEs are commonly present in the human genome are shown in solid boxes. The DNA stem could range from 10 bp to >100 bp with some mismatches. FIG. 42D. […] This chimeric RNA target intron regions and has GC content of 60.4%. FIG. 42D discloses the BCR targeting sequence as SEQ ID NO: 248, the KCNQ2 targeting sequence as SEQ ID NO: 249, and the chimeric sequence as SEQ ID NO: 250. FIG. 42E. BCR-KCNQ2 fusion can be induced by chimeric RNAs that form 3-way junction with genomic stems using SINE repeats (Set1A) or outside of SINE repeats (Set1B). 293T cells were transfected with chimeric RNA expression plasmid for 3 days and then harvested for nested RT-PCR.

TMPRSS2-ETV1 fusion [4] = assay: RT-PCR detection of induced TMPRSS2-ETV1 fusion transcript in LNCaP cells; format: cell-based, human; conditions: LNCaP, two-round nested PCR
Method: • 1st Round: Top down PCR with TMPRSS2 ex-1 F1 and ETV1 ex-6 R1 • Denaturation 94° C., 30 sec • Annealing * , 45 sec • Extension 72° C., 60 sec
The Denaturation, Annealing and Extension steps were performed 2 cycles. • 2 cycles at each temperature: 62° C., 61° C., 60° C. . . .
Long Range PCR for Detecting Genomic DNA Fusion Junction

TMPRSS2-ERG fusion [5] = test system: TMPRSS2-ERG fusion
Method: as §2, §3, §4, §5, §6, §7

[6] = LNCaP, 4 μg/ml α-amanitin, 0.9 μM DHT

CC[C@H](C)[C@@H]1NC(=O)CNC(=O)[C@@H]2Cc3c([nH]c4cc(O)ccc34)[S+]([O-])C[C@@H](NC(=O)CNC1=O)C(=O)N[C@@H](CC(N)=O)C(=O)N1C[C@H](O)C[C@H]1C(=O)N[C@@H]([C@@H](C)[C@@H](O)CO)C(=O)N2 (stereo in doubt) [α-amanitin, reference compound]
effect of α-amanitin treatment on TMPRSS2-ERG induction by antisense input RNA (TMPRSS2-ERG fusion [1]; lane 1 vs. 5): reduced the induction by antisense input RNAs | effect of α-amanitin treatment on TMPRSS2-ETV1 induction by antisense input RNA (TMPRSS2-ETV1 fusion [2]; lane 11 vs. 15): reduced the induction by antisense input RNAs

B1: Antisense-B3: input RNA, SEQ ID NO: 17 (nucleic acid)
antisense: TGTGCTCGCTTCGGCAGCACATATACTAACATTGGAACGATCCTGCAGTGGGGAGCATTTCCAGATGGAGAAACTGCAAGGAAAAGCATAGAAGTGGGGCCACCCCTCGTGAGCTGGGGAGGGCTCACCTGCCGCGCTCCAGGCGGCGCTCCCCGCCCCTCGCCCTCCGCCTCCG
induction of endogenous TMPRSS2-ERG fusion transcript (RT-PCR) (TMPRSS2-ERG fusion [3]): complete loss of induction

B2: Sense-2: input RNA, SEQ ID NO: 2 (nucleic acid)
sense: TGTGCTCGCTTCGGCAGCACATATACTAACATTGGAACGATCCTGCAGGAGTAGGCGCGAGCTAAGCAGGAGGCGGAGGCGGAGGCGGAGGGCGAGGGGCGGGGAGCGCCGCCTGGAGCGCGGCAGGAAGCCTTATCAGTTGTGAGTGAGGACCAGTCGTTGTTTGAGTGTGCCTACGGAACGCCACACCTGGCTAAGACAGAGATGACCGCGTCCTCCTCCAGCGACTATGGACAGACTTCCAAGATGAGCCCACGCGTCCCTCAGCAGGATTGGCTGTCTCAACCCCCAGCCAGGGTCACCATCAAAATGGAATGTAACCCTAGCCAGGTGAATGGCTCAAG
induction of endogenous TMPRSS2-ERG fusion transcript (RT-PCR) (TMPRSS2-ERG fusion [3]): failed to induce fusion transcripts

B3: SEQ ID NO: 247: chimeric RNA utilizing the SINE element to induce BCR-KCNQ2 fusion, GC content 52% (S1A 200-1 or S1A 200-2) (nucleic acid)
chain: AGCAGGGGGGGCGGTGTCCACACATCCTCACTACGCTGATTTGCCATTTGACTTACACAGTGCAACTCATGTGTTACCAGCCTTCACTGTTCTGACAGCT
modifications: listed as DNA, further chemistry not given here
induction of BCR-KCNQ2 fusion (BCR-KCNQ2 fusion): induce BCR-KCNQ2 fusion

B4: Sense-5: input RNA, SEQ ID NO: 29 (nucleic acid)
sense: TGTGCTCGCTTCGGCAGCACATATACTAACATTGGAACGATCCTGCAGGAGTAGGCGCGAGCTTCCATCTCTCACTCCTGTCTGGCGGAGGGCGAGGGGCGGGGAGCGCCGCCTGGAGCGCGGCAGGTGAGCGGCGGATTGGCTGTCTCAACCCCCAGCCAGGGTCACCATCAAAATGGAATGTAACCCTAGCCAGGTGAATGGCTCAAG
induction of endogenous TMPRSS2-ERG fusion transcript (RT-PCR) (TMPRSS2-ERG fusion [3]): fails to induce TMPRSS2-ERG gene fusion | α-amanitin treatment time after which sense input RNA began to induce TMPRSS2-ERG (TMPRSS2-ERG fusion [1]; [6]): 12 h

B5: S1B 10-8: chimeric RNA, BCR-KCNQ2, GC content 60.4% (nucleic acid)
chain: CCAGGTGGAGCTGCCCATGCCTTCCCCGCAGGGCTGAGCCCACTCAGCCGTGAACCAAAGTCCACTAGTCCCATCAAAAGTGCTAACAGGAAGGGGGGATC
modifications: listed as DNA, further chemistry not given here
induction of BCR-KCNQ2 fusion (BCR-KCNQ2 fusion): induce BCR-KCNQ2 fusion in 293T cells | Cell line(s) identified (BCR-KCNQ2 fusion; fusion gene partners BCR-KCNQ2, 293T): 293T

B6: Sense-2 Long: input RNA, SEQ ID NO: 3 (nucleic acid)
sense: TGTGCTCGCTTCGGCAGCACATATACTAACATTGGAACGATCCTGCAGGAGTAGGCGCGAGCTAAGCAGGAGGCGGAGGCGGAGGCGGAGGGCGAGGGGCGGGGAGCGCCGCCTGGAGCGCGGCAGGAAGCCTTATCAGTTGTGAGTGAGGACCAGTCGTTGTTTGAGTGTGCCTACGGAACGCCACACCTGGCTAAGACAGAGATGACCGCGTCCTCCTCCAGCGACTATGGACAGACTTCCAAGATGAGCCCACGCGTCCCTCAGCAGGATTGGCTGTCTCAACCCCCAGCCAGGGTCACCATCAAAATGGAATGTAACCCTAGCCAGGTGAATGGCTCAAGGAACTCTCCTGATGAATGCAGTGTGGCCAAAGGCGGGAAGATGGTGGGCAGCCCAGACACCGTTGGGATGAACTACGGCAGCTACATGGAGGAGAAGCACATGCCACCCCCAAACATGACCACGAACGAGCGCAGAGTTATCGTGCCAGCAGATCCTACGCTATGGAGTACAGACCATGTGCGGCAGTGGCTGGAGTGGGCGGTGAAAGAATATGGCCTTCCAGACGTCAACATCTTGTTATTCCAGAACATCGATGGGAAGGAACTGTGCAAGATGACCAAGGACGACTTCCAGAGGCTCACCCCCAGCTACAACGCCGACATCCTTCTCTCACATCTCCACTACCTCAGAGAGACTCCTCTTCCACATTTGACTTCAGATGATGTTGATAAAGCCTTA
induction of endogenous TMPRSS2-ERG fusion transcript (RT-PCR) (TMPRSS2-ERG fusion [3]): failed to induce fusion transcripts

B7: Antisense-C2: input RNA, SEQ ID NO: 19 (nucleic acid)
antisense: TGTGCTCGCTTCGGCAGCACATATACTAACATTGGAACGATCCTGCAGTGAGCTCATGCTATTCCTATGACATAGATGAGCACTGGGTAGACCCCGTCCTGGTAACACTATTCATGCACTAACCAGCACTCCCAGTCCTCCTCCCCAAAGAGAAAAGGCGCACCGGTGCTCCCAG
induction of endogenous TMPRSS2-ERG fusion transcript (RT-PCR) (TMPRSS2-ERG fusion [3]): complete loss of induction

B8: Sense-TMPRSS2-ETV1-A1: input RNA, SEQ ID NO: 42 (nucleic acid)
sense: TGTGCTCGCTTCGGCAGCACATATACTAACATTGGAACGATCCTGCAGCCAGTTGGTGGAAGAGAGTCCCCCGGGGTCCCCAAAGCTGGCTCCTAGTCTACTGAATCTAACTAAGACTTTAACTTGGAACGATTTACATAATGCGGCA
induction of TMPRSS2-ETV1 fusion transcript (RT-PCR) (TMPRSS2-ETV1 fusion [4]): failed to induce fusion transcript | α-amanitin treatment time after which sense input RNA began to induce TMPRSS2-ETV1 fusion (TMPRSS2-ETV1 fusion [2]; [6]): 24 h

B9: Antisense-2: input RNA, SEQ ID NO: 5 (nucleic acid)
antisense: TGTGCTCGCTTCGGCAGCACATATACTAACATTGGAACGATCCTGCAGCTTGAGCCATTCACCTGGCTAGGGTTACATTCCATATTGATGGTGACCCTGGCTGGGGGTTGAGACAGCCAATCCTGCTGAGGGACGCGTGGGCTCATCTTGGAAGTCTGTCCATAGTCGCTGGAGGAGGACGCGGTCATCTCTGTCTTAGCCAGGTGTGGCGTTCCGTAGGCACACTCAAACAACGACTGGTCCTCACTCACAACTGATAAGGCTTCCTGCCGCGCTCCAGGCGGCGCTCCCCGCCCCTCGCCCTCCGCCTCCGCCTCCGCCTCCTGCTTAGCTCGCGCCTACTC
induction of endogenous TMPRSS2-ERG fusion transcript (RT-PCR) (TMPRSS2-ERG fusion [3]): induced a clear band of 721 bp; also recorded: capable of inducing the fusion transcript | Cell line(s) identified (TMPRSS2-ERG fusion [3]; fusion gene partners TMPRSS2-ERG, LNCaP): LNCaP | induction with U6 promoter compared to CMV promoter (TMPRSS2-ERG fusion [5]): more pronounced
